According to patent US20250051821:
Where a chain is given by its changes, count along the chain named.

T1: IFF07399
T1 chain: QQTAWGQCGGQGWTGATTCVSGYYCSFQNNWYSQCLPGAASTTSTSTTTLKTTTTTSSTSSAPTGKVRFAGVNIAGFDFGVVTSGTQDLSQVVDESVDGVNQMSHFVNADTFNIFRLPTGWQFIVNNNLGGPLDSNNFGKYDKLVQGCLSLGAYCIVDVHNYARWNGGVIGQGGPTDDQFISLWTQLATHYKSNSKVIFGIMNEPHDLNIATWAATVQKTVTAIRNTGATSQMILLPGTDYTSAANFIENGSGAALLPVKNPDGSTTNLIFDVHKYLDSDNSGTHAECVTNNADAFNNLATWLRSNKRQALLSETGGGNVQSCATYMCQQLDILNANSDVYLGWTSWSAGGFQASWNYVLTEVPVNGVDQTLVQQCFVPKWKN

T2: IFF05588
T2 chain: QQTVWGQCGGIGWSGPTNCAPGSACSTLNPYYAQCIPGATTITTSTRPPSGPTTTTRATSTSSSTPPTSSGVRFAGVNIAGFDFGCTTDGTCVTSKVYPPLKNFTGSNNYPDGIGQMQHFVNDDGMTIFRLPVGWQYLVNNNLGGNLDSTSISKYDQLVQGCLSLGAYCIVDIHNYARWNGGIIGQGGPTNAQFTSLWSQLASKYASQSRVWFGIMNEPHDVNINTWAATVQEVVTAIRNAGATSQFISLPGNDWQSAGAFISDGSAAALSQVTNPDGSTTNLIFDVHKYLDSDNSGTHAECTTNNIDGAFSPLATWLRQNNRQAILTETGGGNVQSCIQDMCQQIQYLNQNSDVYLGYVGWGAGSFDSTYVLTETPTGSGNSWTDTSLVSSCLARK

B1: IFF21374 (protein)
chain: QRLNKPALTPNLDYLEQGNIDNLHPTHSTWDKWGPGWIPADCKSIAQNEGKNPDDFEIYNVHYDDCSDAWVFCRHKDSNVDLVTTIDIFGRLPVKMRSWVRHVITIPGDSWAYNSNGNIAFFGTTSSSMDVAIHETGHSLDLLGAYWGKTFSDSSTWLDNYNQDPNVPDEYAQTNQVENVAQNTVVGVYDKVVPGGFGSVQPNWHNIFHQYATLQWGAGDQIIPGGTCDRHLQNSETVPTGNSALAFNAVNRPDTSLKGNYSNIVTDFKEFSTRGNCRI
B2: IFF21358 (protein)
chain: GNPDKPEVNPHIPYDRLENDLRNNLHPTQSTWDYWGAGWIPQGCKDLANTYHLNPADFTIFNVHYTDCSASWTFCRHKNAGASEIDMIDIFGRLPVRMRSYLRHLVATPGLNDGAAAWTWSSGDCVVESAPNLATLVHEVSHSLDWHALPQYQQPFSSSSIWQDNYNQDSATPTGYGRTNWMENFAETGMVGVYDKAVPGGIGNIEPNWNAIFHQYATYQGYLGDKIIAGGSCANRFDDTPPVAMSNSAKFKITSAKPETGIDFAGKNITQIIPSKEFEGLYIKG
B3: IFF21344 (protein)
chain: KLDKPIIQPNFPGGGLASLGQGLLNNLSPTQSTSDNWGAGWIPADCKSLVQGAGLSPFDVTPFNIHYTDCSQTWTFCRHKDSPLSQTDIIDLFGRVPVRMRDFIRHYVFIPGATSAGSSGDNTLMVGNVDITVFLHEIGHSLDSHAFDPSYGVPFSTSNVWISNYNLDSAVTDSYAQTSQQENFAQETVVSVYDKVVPGGIGTIQPNWQAIFHQYATLQGYIGNTIIPGGTCVNRLTDSQPVTMGNSAKFRRGLGPKPTVSLSPDVKEIKPIPMSDSITMTTFDEFGKANGTYVIHL
B4: IFF21366 (protein)
chain: QNLNKPVLFSDGLSPHVDSVFFQHLTPTQSTWDKWGWGWIPQACLSVVQGTQFSPYDIEVYNVHYTDCASAVVMCRHNQAQMSIINMIDAFGRIPIHDRQWTQHILALPAGGCSAGTGGAVTTFYGPCYIPSVFVHELTHTLDAFVNDKTGSTGAVHVYSTTSSYLNSVNQDSCVPDGYANTSPQEDYAQTSVLALYEKVNPGGLDPIGPWRCLVNAKNNLDSIIGQELTPGGSCTHRWADSAIVCMGPAAGCTSSKRGFEGRRGLKPVGPKPNPANKKGDPLVLDLLPDLASVVNAKITDFSHLSSNHTAGIEATIRINAWNKAAGKETVPVPKA
B5: IFF21361 (protein)
chain: DLLRPEIDTVFADGLGPLDQPLVDNLPLTSYTLNQWAPGWIPADCKAMIEGQNMSATEMTVWSVAYADCVDPWVMCQHPSAELNLTAMIDLFGRLPVKMRSLVRHLAAIPGRPWAYNSGTTGRISVFAHEVGHSMDYHGYFNDTRGQFSLSSLWLDNFAKDSGVADYYANTDQGENHSQEVVVALFDANVPGGLGSVTGNWSAILHQYATIQGFVGDGGDTLTPGGACSHRHNNSAAVPMTTEDAAQGPPPDVELTGPVHVYAFKPMEPVANATVVKEDGVAAPMVVKVF
B6: IFF21347 (protein)
chain: KLDKPVIQPNFPGGGLASLGQGLLDNLKPTQSTSDVWGAGWIPADCKSLVQGAGLSPNDITPFNIHYTDCSQTWTFCRHKDSPLSQTDIIDLFGRVPVRMRDYIRHYVFIPGNKSAGSSGDNTLMVGDVDITVFLHEIGHSLDSHAFDPSYGVPFSTGNVWISNYNQDSAVTDDYAQSSQQENFAQETVVSVYDKNVPGGIGNIQPNWQAIFHQYATLEGYIGDTIIPGGTCVNRLTDSQPVTMSNSAKFRRNLGPKPTVSLSPDVKEIKAIPMADSIKMTSFDEHGKPNGTYVIQL
B7: IFF21346 (protein)
chain: B6 chain with K1N, D174S, N253T, A271P, Q296N
B8: IFF21372 (protein)
chain: QNLGKPVLFTDGLSPHVDASFWAHLNPTQSTWDQWGWGWIPQSCFDAANSNNVSPYDFEVFNVHYTDCGTAWVFCRHHSASLSQIDMIDLFGRLPVHERQWIRHVVAVPGGGSAYELNADVVFQGPVGTPSVFQHEVGHAVDFYKNGFQSSGTSQFLNAIQQDSCVPDDYANSNNVEDYTQVGVLSLYEIVNPGGLDPIGANWRCLVNQKNVLDGFQRDNMIPGGVCDRRWADSTIVKMGPAVPRVKRGPVGPIPQPAGLPVPGPSKAGPDVYKNLVFNATEKRNAETRQAAWQKAAKGAEA
B9: IFF21345 (protein)
chain: B3 chain with V153A, T157N, V160I, N224D
B10: IFF21370 (protein)
chain: DDTPPFKPVISPAFDFYGTLEDGLRANLAPTQSTWDQWGEGWIPDDCKWYAEYYGYAANEFEVFNVKYTDCDEAWIMCRHKQATVSQTGMIDLFGRLPLGMREYVKHVVMAPETKANTVASSYRGTIAFDQDYFSIYNLVHETGHCMDGTAALDVFPDGISSSSIWQDNYNQDSAVVRDYARSSWVENFAETGTVAVYDKVVPGGIGPIQPNWEQIYHQYATYNGYLSDIITPGAKDKCTQRRENSETVAMGASSRIMRSSPPDTSFKSDVKVMPAGANDEFFFEHSRDH
B11: IFF21376 (protein)
chain: QTLDKPALTPDLDYLEQGAIDNLAPTQSTNDQWGSGWIPSDCKDIANNEGKNPDDFEIYNVHYDDCDDAWVFCRHKDTPTDLITTIDIFGRLPVAMRSWVRHVLTIPGDNYAYNSNGNIAFFGTTSGIMDVAIHETGHSLDLLGAYGDQLSSSQDWLDNYNQDSNVPDNYAQTNQIENVEQNTVVSVYDKVVPGGFGSAQPNWNNIFHQYATLQGKAGDQIIPGGSCDRHLVNSETVSTSDSAAAAMVDAVDKPVTSFKGNYTKILKTHAKFNTKESCYFGN

Target: T1, IFF07399
For B1, the “Gel mobility change (SDS-PAGE)” value was “yes”. In the case of B2, the “Gel mobility change (SDS-PAGE)” value is reported as “yes”. In the case of B3, the “Gel mobility change (SDS-PAGE)” value is reported as “yes”. With B4 the “Gel mobility change (SDS-PAGE)” value was “yes”.

Target: T2, IFF05588
In the case of B5, the Relative late peak area (centered, scaled, averaged over 5, 10 and 15 min) is reported as -1.05, the Relative late peak area (centered, scaled, averaged over doses, 24 h; sample diluted 1-fold) is reported as -1.64 and the “modification of IFF05588 (reverse phase chromatography, 5 to 15 min)” value is reported as “All samples containing proteins related to IFF05497 except seven (IFF21355, IFF21358, IFF21356, IFF21361, IFF21370, IFF21357 and IFF21353) are able to modify IFF05588 under these reaction conditions”. The “modification of IFF05588 (reverse phase chromatography, 24 h, doses)” value was “All samples containing proteins related to IFF05497 except two (IFF21376 and IFF21361) are able to modify IFF05588 under these reaction conditions. Close comparison of the chromatograms for these two samples show differences between buffer and sample chromatograms indicative of activity in the sampl”. With B1 the Relative late peak area (reverse phase chromatography, 24 h) was 0.51. B6 gave a Relative late peak area (centered, scaled, averaged over 5, 10 and 15 min) of 1.74, a Relative late peak area (centered, scaled, averaged over doses, 24 h; sample diluted 10-fold) of 1.14 and a Relative late peak area (reverse phase chromatography, 24 h) of 0.59. B7 was tested, and the Relative late peak area (centered, scaled, averaged over 5, 10 and 15 min) was 0.52 and the Relative late peak area (centered, scaled, averaged over doses, 24 h; sample diluted 2-fold) was 1.07. In the case of B8, the Relative late peak area (centered, scaled, averaged over 5, 10 and 15 min) is reported as 1.62, the Relative late peak area (centered, scaled, averaged over doses, 24 h; sample diluted 10-fold) is reported as 1.18 and the Relative late peak area (reverse phase chromatography, 24 h) is reported as 0.6. B2 was tested, and the Relative late peak area (centered, scaled, averaged over 5, 10 and 15 min) was -1.04, the Relative late peak area (centered, scaled, averaged over doses, 24 h; sample diluted 1-fold) was -1.46 and the “modification of IFF05588 (reverse phase chromatography, 5 to 15 min)” value was “All samples containing proteins related to IFF05497 except seven (IFF21355, IFF21358, IFF21356, IFF21361, IFF21370, IFF21357 and IFF21353) are able to modify IFF05588 under these reaction conditions”. B3 gave a Relative late peak area (centered, scaled, averaged over 5, 10 and 15 min) of 1.36 and a Relative late peak area (centered, scaled, averaged over doses, 24 h; sample diluted 10-fold) of 0.79. B9 showed a Relative late peak area (centered, scaled, averaged over 5, 10 and 15 min) of 1.82 and a Relative late peak area (centered, scaled, averaged over doses, 24 h; sample diluted 10-fold) of 1.24. Work on B4 yielded a Relative late peak area (centered, scaled, averaged over 5, 10 and 15 min) of 0.34 and a Relative late peak area (centered, scaled, averaged over doses, 24 h; sample diluted 2-fold) of 1.02. For B10, the Relative late peak area (centered, scaled, averaged over 5, 10 and 15 min) was -1.05 and the “modification of IFF05588 (reverse phase chromatography, 5 to 15 min)” value was “All samples containing proteins related to IFF05497 except seven (IFF21355, IFF21358, IFF21356, IFF21361, IFF21370, IFF21357 and IFF21353) are able to modify IFF05588 under these reaction conditions”. B11 was tested, and the Relative late peak area (centered, scaled, averaged over 5, 10 and 15 min) was -0.99 and the Relative late peak area (centered, scaled, averaged over doses, 24 h; sample diluted 1-fold) was -1.61.
